± gives the uncertainty stated by the source.
Assay: amyloid nucleation score (Sup35N fusion, yeast selection) (log enrichment); library NNK1; higher = more nucleation; inactive = no reads after selection
Summary of the method: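 Using DiMSum, nucleation scores were taken as the log enrichment of output over input reads, centred on the mode score of non-aggregating sequences. The input and output reads came from Illumina sequencing of plasmid inserts, with sequences under 100 input reads excluded. The yeast were psi-negative, expressed Sup35N fused to peptides of 20 random codons, were induced with 100 μM copper sulfate for 24 hours, and were grown 7 days at 30°C on medium lacking adenine and uracil.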

## TNMRTWFSGSFTILKCTDFQ
  amyloid nucleation score: 0.744 ± 0.74

## YKGRTPSSRLASLVCRGG
  amyloid nucleation score: -0.198 ± 0.64

## WLLTNPPLIVFTVRRNSRFS
  amyloid nucleation score: -1.09 ± 1.9

## EGVHNSRKVEPGVKFGSGAR
  amyloid nucleation score: 0.621 ± 1

## VGLMAVLRVGRKGLPLKNME
  amyloid nucleation score: -0.082 ± 0.31

## FRGMGAS
  amyloid nucleation score: 0.617 ± 0.62

## VIGSMVGLI
  amyloid nucleation score: 0.668 ± 0.31

## TEAFRSRAFFGWWRSMCRRW
  amyloid nucleation score: 0.112 ± 0.87

## IHALLRQNMD
  amyloid nucleation score: -0.599 ± 0.39

## ENGLFKF
  amyloid nucleation score: 0.695 ± 0.32

## NRYFRMCFRLWFDPTWSVRA
  amyloid nucleation score: 0.681 ± 0.85

## CRPVGRRYKWFTFSGGLLLR
  amyloid nucleation score: 1.14 ± 0.9

## RLGRGKMKGWLSMLCRDCAL
  amyloid nucleation score: -0.918 ± 0.65

## LSSYSTYPCSLTGVRKLNCR
  amyloid nucleation score: -0.205 ± 0.56

## LFSSLRRGRHSLPIPLPMNL
  amyloid nucleation score: 0.013 ± 0.36

## IYLMIGHWESNNKLNICVLP
  amyloid nucleation score: 3.7 ± 0.11

## LDWSMLRTELVIGILRSGRE
  amyloid nucleation score: 0.248 ± 0.52

## QDRYR
  amyloid nucleation score: 0.156 ± 0.56

## SAIYRRWAHRAQSAWQVESR
  amyloid nucleation score: 1.94 ± 0.7

## MLEDNLRVTTWPY
  amyloid nucleation score: -0.407 ± 0.39

## MRLERTNRGSAPWTLYYNQR
  amyloid nucleation score: 1.09 ± 0.17

## YASTPWYYMCWFIWAYCFSS
  amyloid nucleation score: inactive

## LATAEASRNYVGYFGWSFMN
  amyloid nucleation score: 0.098 ± 1.1

## QFFQPCVKC
  amyloid nucleation score: 1.06 ± 0.57

## YYDSGVSPAVQSPECSTSGA
  amyloid nucleation score: 0.186 ± 0.93

## SRAINVSVMWVRFS
  amyloid nucleation score: 2.81 ± 0.13

## MLVCILSVFDKNPR
  amyloid nucleation score: 2.78 ± 0.11

## VLRCVISLQV
  amyloid nucleation score: inactive

## AFVVYMNFFHCLESNIVEWH
  amyloid nucleation score: 5.61 ± 0.073

## HAKNSRIYSWLFLCSIKWG
  amyloid nucleation score: 0.396 ± 0.3

## YWFCNRIGIVGIVLSGYLCL
  amyloid nucleation score: -0.154 ± 0.26

## SGHACTGR
  amyloid nucleation score: 0.616 ± 0.4

## GLILNNLSWAHWPPGGSMWL
  amyloid nucleation score: 2.72 ± 0.17

## YWGYKTGQDCFSHSIRRRIL
  amyloid nucleation score: -0.105 ± 0.85

## DEVIF
  amyloid nucleation score: 0.421 ± 0.52

## RLYKFTGF
  amyloid nucleation score: 1.09 ± 0.37

## IIVFGSLEELVGAGLLGRLR
  amyloid nucleation score: -0.106 ± 1.7

## IGPGLSSR
  amyloid nucleation score: -0.521 ± 0.63

## KKGLSKMVKPVYSCLN
  amyloid nucleation score: -1 ± 1.6

## VKLSYGWVLSGAELTEYVTM
  amyloid nucleation score: -0.782 ± 0.54

## CLNGGNFYRSLTRAKTNKNF
  amyloid nucleation score: -0.258 ± 1.1

## GVGRGCYSMACCSAGRLTDG
  amyloid nucleation score: -0.122 ± 0.85

## VCLSSLIRMCKYSFPDGTGH
  amyloid nucleation score: 6.813 ± 0.051

## SYLKS
  amyloid nucleation score: -0.4 ± 0.63

## RRQYFN
  amyloid nucleation score: -0.855 ± 0.45

## WDCYCPWLTLKYEAGLRTSG
  amyloid nucleation score: -1.17 ± 1.9

## TLDRWTVWDLR
  amyloid nucleation score: 0.275 ± 0.32

## MPGRNLRLNKVR
  amyloid nucleation score: 0.273 ± 0.4

## IIRNVTL
  amyloid nucleation score: 0.263 ± 0.24

## RMKLTQLGYSRGNDSLSVLL
  amyloid nucleation score: -0.813 ± 1.4

## MEICNCKDYFKAYRRFSHGS
  amyloid nucleation score: 1.56 ± 0.27

## TLSLFLRKGSRTLRCVCPRG
  amyloid nucleation score: -0.112 ± 0.33

## YNLDDILPLHIEGRFNRDIA
  amyloid nucleation score: inactive

## SVSLTNGVAEADKRYASAWL
  amyloid nucleation score: -0.093 ± 0.31

## GLELLAGVIHSWVRGSGALW
  amyloid nucleation score: -0.868 ± 0.84

## FFLNQMIILSLACIGEPGQG
  amyloid nucleation score: 5.08 ± 0.068

## FMPTKGGQSIIGLHPLLFML
  amyloid nucleation score: -0.577 ± 0.58

## TTTRVFS
  amyloid nucleation score: 0.813 ± 0.81

## SFVHYFKESLAVSSLIRLSN
  amyloid nucleation score: -0.333 ± 1.1

## YRWVFKCRCRSPGGESKSSR
  amyloid nucleation score: 5.9 ± 0.097

## RQMLLPGMRVGKRC
  amyloid nucleation score: 0.144 ± 0.36

## APQSYVVVWFCVARKRCSWD
  amyloid nucleation score: -0.303 ± 0.53

## SLRGQAHLQFSLRILSHSS
  amyloid nucleation score: 1.4 ± 0.24

## SLISCEWSYTWCGKFVILLV
  amyloid nucleation score: -0.707 ± 1.1

## NNGRLYVTIRLMDINLVVHT
  amyloid nucleation score: 0.616 ± 0.43

## CILWDWMYEGMKTSEGIFDR
  amyloid nucleation score: 0.118 ± 0.71

## VSVSNISSVLTLSGKMLIST
  amyloid nucleation score: -0.031 ± 0.39

## HWLRYGDRIHMDNYNTSFFV
  amyloid nucleation score: 1.42 ± 0.12

## KWGLGFFDWKMKYHFRCYKC
  amyloid nucleation score: 0.033 ± 0.56

## PKLRKLVSFYVSYIPGGGYG
  amyloid nucleation score: -0.106 ± 0.93

## WIGNRVSSMFDGTGS
  amyloid nucleation score: 0.538 ± 0.55

## SSKEWLNADAVPGNGVEAIV
  amyloid nucleation score: -0.338 ± 0.53

## PMYWLPIFLS
  amyloid nucleation score: inactive

## NASYVNIKYRNRGN
  amyloid nucleation score: 4.53 ± 0.082

## FKVTVRVGSTMSILL
  amyloid nucleation score: 0.223 ± 0.42

## SNGLGMVRDR
  amyloid nucleation score: -0.172 ± 0.67

## FYLHRAIWPSYHVSRLVRHR
  amyloid nucleation score: -0.979 ± 2.7

## HSLAGLGIIGRCAKLVQAQS
  amyloid nucleation score: 0.48 ± 0.25

## QCTVGASMD
  amyloid nucleation score: 0.169 ± 0.34

## LRVCNLFCL
  amyloid nucleation score: 7.912 ± 0.046

## IFPCNFSGNYLRKVWFPVRY
  amyloid nucleation score: 0.42 ± 0.91

## YLVSYMWVSLDDLSLYRANG
  amyloid nucleation score: 0.585 ± 0.52

## VNVNNLRRTYNIRWVVGPGL
  amyloid nucleation score: 5.57 ± 0.064

## GMRIGC
  amyloid nucleation score: 0.023 ± 0.95

## CLIISRVVRSVTNIMEMNNG
  amyloid nucleation score: 0.251 ± 0.45

## RMLQHLVFLAGLNDVFAKGF
  amyloid nucleation score: 1.43 ± 0.15

## RLDRWKHEMTAVSRCHKARM
  amyloid nucleation score: 1.24 ± 0.74
